Reference: paper PMC12668046, “Single cis‐elements in brassinosteroid‐induced upregulated genes are insufficient to recruit both redox states of the BIL1/BZR1 DNA‐binding domain” (Febs Letters, 2025)

B1: unfused BIL1/BZR1 DBD (21–104), pretreated with the reductant DTT (domain or fragment, A. thaliana, UniProt Q8S307 21-104, looked up)
chain: ARRKPSWRERENNRRRERRRRAVAAKIYTGLRAQGDYNLPKHCDNNEVLKALCVEAGWVVEEDGTTYRKGCKPLPGEIAGTSSR
notes: also called reduced BIL1/BZR1 DBD; source: expressed and purified as described previously [9, 14, 21]; SEC into reductant-free buffer
B2: mutated maltose-binding protein (mMBP)-Ala-BIL1/BZR1 DBD (amino acids 21–104) (domain or fragment, A. thaliana, UniProt Q8S307 21-104, looked up)
chain: B1 chain
notes: protomers 1 and 2 are chains C and D of the deposited entries; Co-crystallised with E-box DNA fragments; also called mMBP-fused BIL1/BZR1 DBD; mMBP-BIL1/BZR1 (21–104); source: expressed and purified as described previously [9, 14, 21]; SEC

Key:
[1] = target: the molecule itself; assay: SEC; unfused BIL1/BZR1 DBD pretreated with DTT; Superdex 75 10/300 GL Increase; reductant-free buffer 20 mM Tris/HCl pH 8.0, 1 M NaCl, 10% glycerol
[2] = target: the molecule itself; assay: crystal structure; mMBP-Ala-BIL1/BZR1 DBD co-crystallised with DNA fragments containing E-box variants (CATATG or CAGCTG); sitting drop, 293 K, 50 mM sodium cacodylate pH 6.5, 0.2 M KCl, 0.01 M MgCl2, 10% PEG 4000

Protein	binding result [1]	binding result [2]
B1	binds	
B2		binds
